Measured values reported in patent publication US20250340623A1 (AC IMMUNE, published 2025).
Changes are numbered by the printed parent chain.

B1: ACI-7079-3108C10-Ab2 (antibody, V domains shown)
VH: ELQLVESGGGLVRPGGSLKLSCATSGFTFRNYAMSWVRQTPAKRLEWVATISDGGTYTFYSDNVKGRFTISRDNVKNTLYLQMSHLKSEDTAMYYCSRAGSGHWGQGTTLTVSS
VL: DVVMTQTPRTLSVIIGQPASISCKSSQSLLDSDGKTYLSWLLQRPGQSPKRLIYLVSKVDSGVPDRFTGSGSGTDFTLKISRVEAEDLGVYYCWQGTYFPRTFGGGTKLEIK
notes: mouse hybridoma mAb; VH/VL only; also called 3108C10G6
B2: ACI-8033-6403E11-Ab2 (antibody, V domains shown)
VH: DVQLQESGPGLVKPSQSLSLTCSVTGYSITSAYYWNWIRQFPGNKLEWMGYISYDGSNNYIPSLKNRISISRDTSKNQFFLKLNSVTTEDTATYYCIRGDVNWGQGTTLTVSS
VL: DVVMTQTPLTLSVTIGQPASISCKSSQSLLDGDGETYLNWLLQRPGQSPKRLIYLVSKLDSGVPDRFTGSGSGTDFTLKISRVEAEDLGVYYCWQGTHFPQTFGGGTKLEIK
notes: mouse hybridoma mAb; VH/VL only; also called 6403E11B4
B3: ACI-8033-6402E10-Ab1 (antibody, V domains shown)
VH: B2 VH with S15V, A32G, Y54S, I61N, N84D, I97V, G99A, V101N, N102Y
VL: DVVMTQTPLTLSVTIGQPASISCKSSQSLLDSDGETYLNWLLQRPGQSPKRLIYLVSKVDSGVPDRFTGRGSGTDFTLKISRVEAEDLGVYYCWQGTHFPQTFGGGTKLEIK
notes: mouse hybridoma mAb; VH/VL only; also called 6402E10B3
B4: ACI-7089-4418C5-Ab1 (antibody, V domains shown)
VH: B2 VH with V2G, A32G, S53N, I61N, S71T, L83F, S85F, I97V, N102Y
VL: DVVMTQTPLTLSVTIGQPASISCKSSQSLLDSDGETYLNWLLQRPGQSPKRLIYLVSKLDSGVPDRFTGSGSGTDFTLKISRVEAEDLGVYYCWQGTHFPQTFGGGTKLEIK
notes: mouse hybridoma mAb; VH/VL only; also called 4418C5G1
B5: ACI-7087-4119E10-Ab2 (antibody, V domains shown)
VH: QVQLQQSGAELVRPGASVTLSCKASGYTFSDYEMNWVKQTPVHGLEWIGAIDPETGGTAYNQKFKGKAILTSDKSSSTAYMELRSLTSEDSAVYYCTRFLLIDFDYWGQGTTLTVSS
VL: DVLMTQTPLSLPVSLGDQASISCRSSQSIVHSNGNTYLEWYLKKAGQSPKVLIYKVSNRFSGVPDRFSGSGSGTDFTLKISRVEAEDLGVYYCFQGSHVPYTFGGGTELEIK
notes: mouse hybridoma mAb; VH/VL only; also called 4119E10D12
B6: ACI-8033-21C8-Ab1 (antibody, V domains shown)
VH: QVQLQQPGAELVKPGASVKMSCKASGYTFTSYWITWVRQRPGQGLDWIGDIYPGGGVTNYNEKFKTKATLTVDTSSSTAYMHLSSLTSEDSAVYFCATAQTTFAYWGQGTLVTVSA
VL: B5 VL with S28N, S32N, K43Q, A45P, V51L, Y101R, E108K
notes: mouse hybridoma mAb; VH/VL only; also called 917.21C8E4C8
B7: ACI-7079-3103G12-Ab2 (antibody, V domains shown)
VH: DVQLQESGPGMVKPSQSLSLTCTVTGYSITSGYDWHWIRHFPGNKLEWMGYITYSGSTNYNPSLKSRISITHDTSKNHFFLKLTSVTTEDTATYYCARDTVDAWFAYWGQGTLVTVSA
VL: B5 VL with T7A, N35D, K43Q, A45P, V51L, Y101P, E108K
notes: mouse hybridoma mAb; VH/VL only; also called 3103G12D2B10
B8: ACI-7079-3101E3-Ab1 (antibody, V domains shown)
VH: QVQLKESGPGLVAPSQSLSITCTVSGFSLTRYIINWVRQPPGKGLEWLGVIWTGGGTDYNSALKSRLSISKDNSKSQVFLKMNSLQTDDTARYYCAREYGYDGAWFAYWGQGTLVTVSA
VL: B5 VL with S28T, K43Q, A45P, V51L, E108K
notes: mouse hybridoma mAb; VH/VL only; also called 3101E3C9
B9: ACI-7079-3106F2-Ab1 (antibody, V domains shown)
VH: EVQLQQSGAELVRPGASVKLSCTASGFNVKDDYMHWVKQRPEQGLEWIGWIDPENGDTEYASKFQGKATLTADTSSNTAYLQLSGLTSVDTAVYYCTTAGTSPYYFDYWGQGTTLTVSS
VL: DIVMTQSQKFMSTSVGDRVSVTCKASQNVGTNVAWYQQKVGQSPKALIYSASYRYSGVPDRFTGSGSGTDFTLTISNVQSEDLADYFCQQYNSYPLTFGSGTKLEIK
notes: mouse hybridoma mAb; VH/VL only; also called 3106F2C8
B10: ACI-7088-4301E12-Ab2 (antibody, V domains shown)
VH: DVQLQESGPGLVKPSQSLSLTCSVTGYSITSGYYWNWIRQFPGNKLEWMGYISDDGSKNYNPSLKNRISITRDTSKNQLFMKLNSVTTEDTATYYCARGDSRLGQGTLVTVSA
VL: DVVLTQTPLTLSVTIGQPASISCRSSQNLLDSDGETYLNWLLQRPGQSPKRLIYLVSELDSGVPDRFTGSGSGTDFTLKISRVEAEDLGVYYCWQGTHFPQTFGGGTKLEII
notes: mouse hybridoma mAb; VH/VL only; also called 4301E12B9
B11: ACI-7079-3103D9-Ab1 (antibody, V domains shown)
VH: QVSLKESGPGILQPSQTLSLTCSFSGFSLSTFGMGVGWIRQPSGKGLDWLTHIWWDDDKYYNPGLKSRLTISKDTSKNQVFLEIANVDTADTATYYCARIGDYYGTRGYFDVWGTGTTVTVSS
VL: DIVMTQSPSSLTMSLGQTVTMSCKSSQSLLNSSNQKNHLAWYQQRPGQSPKLLVYFASTRESGVPERFIGGGSGTDFTLTISNVQSEDLTDYFCQQHYSTPYTFGGGTKLEIK
notes: mouse hybridoma mAb; VH/VL only; also called 3103D9C9
B12: ACI-7079-3106C5-Ab1 (antibody, V domains shown)
VH: B11 VH with S3T, D48E, G64A, K73R, T75P, E83K, T106S
VL: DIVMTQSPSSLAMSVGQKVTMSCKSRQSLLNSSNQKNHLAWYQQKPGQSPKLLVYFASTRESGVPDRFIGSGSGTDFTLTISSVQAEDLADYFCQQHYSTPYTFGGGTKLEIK
notes: mouse hybridoma mAb; VH/VL only; also called 3106C5B7
B13: ACI-7079-3107E6-Ab1 (antibody, V domains shown)
VH: B11 VH with S3T, D48E, G64A, T75A, V80M, E83K, Y96F, T106S, Y109F
VL: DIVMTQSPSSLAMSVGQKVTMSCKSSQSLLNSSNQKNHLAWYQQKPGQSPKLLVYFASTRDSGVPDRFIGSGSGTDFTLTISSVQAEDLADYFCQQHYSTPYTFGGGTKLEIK
notes: mouse hybridoma mAb; VH/VL only; also called 3107E6A3
B14: ACI-7079-3104F12-Ab2 (antibody, V domains shown)
VH: B11 VH with S3T, L12V, S30N, M34L, G64A, E83K, Y103F, T106S
VL: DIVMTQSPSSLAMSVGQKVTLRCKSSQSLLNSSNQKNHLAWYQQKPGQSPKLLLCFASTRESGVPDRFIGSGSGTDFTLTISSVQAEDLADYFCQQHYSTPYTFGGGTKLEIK
notes: mouse hybridoma mAb; VH/VL only; also called 3104F12F2H7
B15: ACI-8033-22E5-Ab1 (antibody, V domains shown)
VH: EVQLVESGGDLVKPGGSLKLSCAASGFTFSSYGMSWVRQTPDKRLEWVATISNGGSYTYYPDSVKGRFTISRDNAKNTLYLQMSSLKSEDTAMYYCARQLRRDGWYFDVWGTGTTVTVSS
VL: EIVLTQSPALMAASPGEKVTITCSVSSSISSSKLHWYQQKSETSPKLWIYGTSNLASGVPVRFSGSGSGTSYSLTISSMEAEDAATYYCQQWSSYPLTFGAGTKLELK
notes: mouse hybridoma mAb; VH/VL only; also called 917.22E5C5F7
B16: ACI-7088-4301D5-Ab2 (antibody, V domains shown)
VH: QVQLQQSGPELVRPGASVKISCKASGYRFTSYYIHWVKQRPGQGLEWIGWIYPGSDNTKHNDKFKGKATLTADTSSSTAYMQLSSLTSEDSAVYFCARDYDVGFGYWGQGTLVTVSS
VL: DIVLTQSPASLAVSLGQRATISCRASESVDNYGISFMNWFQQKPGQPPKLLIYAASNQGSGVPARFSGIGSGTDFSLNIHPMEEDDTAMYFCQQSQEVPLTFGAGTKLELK
notes: mouse hybridoma mAb; VH/VL only; also called 4301D5B10
B17: ACI-7079-2601B6-Ab1 (antibody, V domains shown)
VH: EIQLQQSGAELVRPGASVKLSCTTSGFNIKDDYIHWVKQRPEQGLEWIGWIDPENGDTDYASKFQGKATITADTSSNTAYLHLSSLTSEDAAVYFCTTRGFGYWGQGTLVTVS
VL: DIVMTQSHKFMSTSVGDRVSITCKASQDVGNVVAWYQQKPGQSPKLLIYWASSRHTGVPDRFTGSGSGTEFTLTISNVQSEDLADYFCQQYSSYPLTFGAGTKLELK
notes: mouse hybridoma mAb; VH/VL only; also called 2601B6D2; ACI-7079-26016NAbM
B18: ACI-7087-4125E6-Ab1 (antibody, V domains shown)
VH: QVQLQQPGTELVKPGASVRLSCKASGYAFTSYWMHWVKQRPGQGLEWIGNINPSNGGTNYNEKFKNKATLTVDKSSSTAYMQLSGLTSEDSAVYYCATGLHYWGQGTTLTVSS
VL: DIQMTQSPSSLSASLGERVTLTCRASQDIGNYLNWLQQEPDGTIKRLIYATSSLDSGVPKRFSGSRSGSDYSLTISSLESEDFVDYYCLQFASSPLTFGPGTKLELK
notes: mouse hybridoma mAb; VH/VL only; also called 4125E6D5
B19: ACI-7089-4415G5-Ab1 (antibody, V domains shown)
VH: QVQLQQSGAELARPGASVKVSCKASGYTFTSSGISWLKHRTGQGLEWIGDIYPRSGNTYYNEKFKDKATLTADKSSSTAYMELRSLTSEDSAVYFCASGNYWGQGTTLTVSA
VL: DIVITQDDLSNPVTSGESVSISCRSSKSLLYKDGKTYLNWFLQRPGQSPQLLIYLMSTRASGVSDRFSGSGSGTDFTLEISRVKAEDVGVYYCQQLLEYPLTFGAGTKLELK
notes: mouse hybridoma mAb; VH/VL only; also called 4415G5A11

Legend:
alpha-synuclein fibrils = alpha-synuclein fibrils (UniProt P37840 1-140); experiment: SPR, captured mAb
Method: (§1) Non-covalent immobilization of alpha-synuclein antibodies was performed using a target immobilization method of 2000 response units (RU). Antibodies were diluted in 10 mM sodium acetate pH 5.5 (GE Healthcare, BR-1003-52) to a final concentration of 5 μg/mL.
(§2) Binding affinity of alpha-synuclein antibodies to monomeric or fibrillar alpha-synuclein species was performed using a single-cycle kinetics method. The instrument was primed with 1×HBS-P+ buffer (10× stock from GE Healthcare, BR-1003-52 diluted in Milli-Q water). Injections of monomeric alpha-synuclein (aSyn) (Boston Biochem, SP-485), increasing in concentration from 0.62-50 nM prepared from serial 2-fold dilutions, were performed with contact times of 300 sec/injection at a flow rate of 30 μL/min. A dissociation phase of 900 sec followed the final 50 nM injection. Regeneration of the sensor to the goat anti-mouse antibody layer was achieved using 3 regenerations of 10 mM Glycine pH 1.7. […] Regeneration of the sensor to the goat anti-mouse antibody layer was achieved using 3 regenerations of 10 mM Glycine pH 1.7. Results obtained from single-cycle kinetics were evaluated by Biacore T200 evaluation software with 1:1 binding homogenous Langmuir model (with a global Rmax) with Cycle 5 as a blank subtraction. The following kinetic parameters were obtained: on-rate (ka), off-rate (kd), affinity constant (KD, ratio of kd by ka), maximum response (Rmax), and goodness of fit (Chi2).
(§3) Non-covalent capture of the alpha-synuclein antibodies was performed in three separate runs.

[1] = target: monomeric alpha-synuclein (UniProt P37840 1-140); experiment: SPR, captured mAb
Method: as §1, §2, §3

Row | Binder | Kd (alpha-synuclein fibrils) | koff (alpha-synuclein fibrils) | kon (alpha-synuclein fibrils) | Kd [1] | koff [1] | kon [1]
1 | B1 | 6.77 nM | 6.66e-05 s⁻¹ | 9840 M⁻¹ s⁻¹ |  |  | 
2 | B2 | 44.6 nM | 0.000273 s⁻¹ | 6110 M⁻¹ s⁻¹ | 3.9 nM | 0.000293 s⁻¹ | 75200 M⁻¹ s⁻¹
3 | B3 | 37.4 nM | 0.000152 s⁻¹ | 4060 M⁻¹ s⁻¹ | 28.3 nM | 0.00058 s⁻¹ | 20500 M⁻¹ s⁻¹
4 | B4 | 0.05 nM | 9.4e-06 s⁻¹ | 207000 M⁻¹ s⁻¹ | 3.1 nM | 0.000141 s⁻¹ | 45000 M⁻¹ s⁻¹
5 | B5 | 16.2 nM | 0.00453 s⁻¹ | 280000 M⁻¹ s⁻¹ | 1040 nM | 0.0188 s⁻¹ | 18000 M⁻¹ s⁻¹
6 | B6 | 17.7 nM | 0.000156 s⁻¹ | 8810 M⁻¹ s⁻¹ | 1.6 nM | 0.000482 s⁻¹ | 301000 M⁻¹ s⁻¹
7 | B7 | 22.5 nM | 0.000563 s⁻¹ | 25000 M⁻¹ s⁻¹ | 2.4 nM | 0.0014 s⁻¹ | 580000 M⁻¹ s⁻¹
8 | B8 | 13.7 nM | 0.000129 s⁻¹ | 9380 M⁻¹ s⁻¹ | 300 nM | 0.0569 s⁻¹ | 190000 M⁻¹ s⁻¹
9 | B9 | 31.5 nM | 0.000367 s⁻¹ | 11700 M⁻¹ s⁻¹ | 392 nM | 0.135 s⁻¹ | 344000 M⁻¹ s⁻¹
10 | B10 | 39 nM | 0.000166 s⁻¹ | 4250 M⁻¹ s⁻¹ | 6 nM | 0.000118 s⁻¹ | 19800 M⁻¹ s⁻¹
11 | B11 | 9.2 nM | 0.000413 s⁻¹ | 44800 M⁻¹ s⁻¹ | 0.73 nM | 0.000437 s⁻¹ | 598000 M⁻¹ s⁻¹
12 | B12 | 9.49 nM | 0.000237 s⁻¹ | 25000 M⁻¹ s⁻¹ | 4.1 nM | 0.00325 s⁻¹ | 792000 M⁻¹ s⁻¹
13 | B13 | 2.66 nM | 0.000146 s⁻¹ | 55100 M⁻¹ s⁻¹ | 1.12 nM | 0.000859 s⁻¹ | 765000 M⁻¹ s⁻¹
14 | B14 | 3.73 nM | 0.000268 s⁻¹ | 71800 M⁻¹ s⁻¹ | 0.51 nM | 0.000452 s⁻¹ | 892000 M⁻¹ s⁻¹
15 | B15 | 1.8 nM | 3.27e-05 s⁻¹ | 18000 M⁻¹ s⁻¹ |  |  | 
16 | B16 | 35.8 nM | 0.000385 s⁻¹ | 10800 M⁻¹ s⁻¹ | 620 nM | 0.0353 s⁻¹ | 56900 M⁻¹ s⁻¹
17 | B17 | 22 nM | 0.000382 s⁻¹ | 17400 M⁻¹ s⁻¹ | 82.1 nM | 0.0238 s⁻¹ | 290000 M⁻¹ s⁻¹
18 | B18 | 50.7 nM | 0.000567 s⁻¹ | 11200 M⁻¹ s⁻¹ | 442 nM | 0.0261 s⁻¹ | 59100 M⁻¹ s⁻¹
19 | B19 | 1.3 nM | 0.00031 s⁻¹ | 242000 M⁻¹ s⁻¹ | 2.4 nM | 0.000141 s⁻¹ | 60000 M⁻¹ s⁻¹
